Measured values published in patent US20260070974A1 (NONA BIOSCIENCES SUZHOU, published 2026).
Where “and” joins values, the source holds several entries; their conditions need not be identical. Identical values can stand only once.

T1: human Siglec-15 ECD-his protein (Acrobiosystems, Cat #: SG5-H52H3) (human, UniProt Q6ZMC9 20-263)
T1 construct: Bought protein; only its extracellular domain stood in the assay; also called human Siglec-15 protein; recombinant human Siglec-15 protein; not shown: his tag
T1 sequence: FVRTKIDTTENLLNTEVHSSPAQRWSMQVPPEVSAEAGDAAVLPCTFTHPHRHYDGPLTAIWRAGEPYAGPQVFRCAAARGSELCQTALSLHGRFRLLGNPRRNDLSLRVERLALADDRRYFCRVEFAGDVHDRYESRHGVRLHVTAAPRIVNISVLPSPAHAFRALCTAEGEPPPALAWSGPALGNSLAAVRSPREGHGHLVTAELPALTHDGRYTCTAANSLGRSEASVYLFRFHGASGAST

T2: human Siglec-4a-his protein (Acrobiosystems, Cat MAG-H52H8) (human, UniProt P20916 20-516)
T2 construct: Bought protein; not shown: his tag
T2 sequence (looked up): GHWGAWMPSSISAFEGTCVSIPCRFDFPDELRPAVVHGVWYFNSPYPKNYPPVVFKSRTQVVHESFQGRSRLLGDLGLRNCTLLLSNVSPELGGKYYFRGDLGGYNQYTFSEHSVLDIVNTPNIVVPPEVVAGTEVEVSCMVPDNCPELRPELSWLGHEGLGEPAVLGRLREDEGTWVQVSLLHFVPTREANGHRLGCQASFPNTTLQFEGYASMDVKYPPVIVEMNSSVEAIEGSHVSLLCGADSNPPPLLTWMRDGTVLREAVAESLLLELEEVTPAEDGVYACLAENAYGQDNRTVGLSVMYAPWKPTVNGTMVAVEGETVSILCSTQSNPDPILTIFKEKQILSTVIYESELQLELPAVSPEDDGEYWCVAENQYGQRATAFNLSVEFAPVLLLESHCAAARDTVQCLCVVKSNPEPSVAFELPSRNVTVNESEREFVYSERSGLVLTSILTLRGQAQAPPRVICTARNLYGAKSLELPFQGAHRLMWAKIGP


Key:
[1] = molecular target: T1, human Siglec-15 ECD-his protein …; assay: ELISA, coated human Siglec-15 ECD-his
[2] = molecular target: T2, human Siglec-4a-his protein …; assay: ELISA on coated human Siglec-4a-his, antibody at 100 nM and 10 nM, goat anti-human IgG-HRP, OD450
Method: (§1) Human Siglec-15 ECD-his protein (Acrobiosystems, Cat SG5-H52H3), human Siglec-2-his protein (Acrobiosystems, Cat CD2-H52H8), human Siglec-4a-his protein (Acrobiosystems, Cat MAG-H52H8), human Siglec-3-his protein (Acrobiosystems, Cat CD3-H5226), human Siglec-10-his protein (Acrobiosystems, Cat SIO-H52H9), and human PD-L1/B7-H1-his protein (Acrobiosystems, Cat PD1-H5229), each at 1 μg/mL and dissolved in PBS, were each added to an ELISA plate at 100 μL/well for coating and the plate was incubated overnight at 4° C. The ELISA plate was then blocked with PBST (PBS+0.05% Tween 20) containing 2% BSA at 200 μL/well and incubated at 37° C. for 1 h. The ELISA plate was washed 4 times with PBST. The anti-Siglec-15 antibody diluted in a gradient (concentrations: 100 nM and 10 nM) was added to the ELISA plate at 100 μL/well and the plate was incubated at 37° C. for 1 h. The ELISA plate was washed 4 times with PBST. The goat anti-human IgG (H+L)-HRP (1:5000, Jackson, Cat 109-035-088) was added at 100 μL/well and the plate was incubated at 37° C. for 1 h. The ELISA plate was washed 4 times with PBST. The TMB substrate (Biopanda, Cat TMB-S-003) was added at 100 μL/well, and the plate was incubated at room temperature for 5 min, and then the stop buffer (Solarbio, Cat #: C1058) was added at 100 μL/well to stop the reaction.

[3] = molecular target: T3, human Siglec-3-his protein (Acrobiosystems, Cat CD3-H5226) (human, UniProt P20138 18-259); assay: ELISA on coated human Siglec-3-his, antibody at 100 nM and 10 nM, goat anti-human IgG-HRP, OD450
T3 construct: Bought protein; not shown: his tag
T3 sequence (P20138 18-259 limits assumed): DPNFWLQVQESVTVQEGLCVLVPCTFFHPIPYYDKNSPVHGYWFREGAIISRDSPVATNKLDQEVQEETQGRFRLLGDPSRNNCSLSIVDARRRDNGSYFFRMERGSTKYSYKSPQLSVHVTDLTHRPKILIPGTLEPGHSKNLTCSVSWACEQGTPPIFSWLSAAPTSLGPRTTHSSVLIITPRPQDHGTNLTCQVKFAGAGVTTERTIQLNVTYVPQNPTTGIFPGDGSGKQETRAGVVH
Method: as §1

| Binder | EC50 [1] | binding result [2] | binding result [3] |
| --- | --- | --- | --- |
| PR301286 (antibody, human IgG1, kappa, V domains shown, Parent of the PTM variants PR301286-1, -3, -5, -6, -7) VH: QVQLVESGGGVVQPGKSLRLSCAASGFTFSSYGMHWVRQAPGKGLEWVAVIWIDGSNRYYAASVKGRFTISRDNSKNTLYLQMNSLRAEDTAVYYCTRGYGDYAYVMDVWGQGASVTVSS VL: DIVMTQSPLSLPVTPGEPASISCRSSQSLLPGNGYNYLDWYLQKPGQSPQLLIYLGSNRASGVPDRFSGSGSGTDFTLKISRVEAEDVGIYYCMQALQSPLTFGGGTKVEIKR | 0.027 nM and 0.018 nM and 0.022 nM | no binding (tested: 100 nM) | no binding (tested: 100 nM) |
| PR301285 (antibody, human IgG1, kappa, V domains shown) VH: QVQLQESGPGLVKPSETLSLTCTVSGGSMISYYWSWLRQPPGKGLEWIGYIYYSGNTNYNPSLKSRITIAVDTSKNQFSLKLNSVTAADTAVYYCARERELHPYYFDYWGQGTLVTVSS VL: DIQLTQSPSFLSASVGDRVTITCRASQGIDNYLAWYQQKPGKAPKVLIYAASTLQSGVPSRFSGSGSGTEFTLTISSLQPEDFATYYCQQLNSYPLTFGGGTKVEIKR | 0.031 nM | no binding (tested: 100 nM) | no binding (tested: 100 nM) |
| PR300066 (Tab) (antibody, human IgG1, kappa, V domains shown, variable region from clone 5G12 of WO 2018/057735A1, on human IgG1/kappa constant regions; also called 5G12) VH: QVQLQQPGAELVKPGASVKMSCKASGYTFTSYWITWVIQRPGQGLEWIGDIYCGSDTMHYNEKFKNKATLTVDTSSSTAYMQLSSLTSEDSAVYYCARWWDYGSSYDYFDYWGQGTTLTVSS VL: DIKMTQSPSSMYASLGERVTITCKASQDINSYLSWFQQKPGKSPKTLIYRANRLVDGVPSRFSGSGSGQDYSLTISSLEYEDMGIYYCLQYDEFPYTFGGGTKLEIKR | 0.022 nM and 0.021 nM and 0.012 nM | no binding (tested: 100 nM) | no binding (tested: 100 nM) |
| PR301289 (antibody, human IgG1, kappa, V domains shown, Parent of the PTM variants PR301289-1 and -2) VH: QVQLVQSGAEVKKPGASVKVSCRASGYTFTSYDINWVRQATGQGLEWMGWMNPHSGDTGYAQNFQGRVTMTWNTSISTAYMELSSLRSEDTAVYYCARRRVGVYYYGMDVWGQGTTVTVSS VL: ENVLTQSPGTLSLSPGERATLSCRASQSVSSSYFGWYQQKPGQAPRLLIYGASSRATGIPDRFSGSGSGTDFTLTISRLEPEDFAVYYCQQYGSSPITFGQGTRLEIKR | 0.027 nM and 0.058 nM | no binding (tested: 100 nM) | no binding (tested: 100 nM) |
